According to patent publication US20260109782A1 (Chugai, published 2026):
Substitutions are numbered along the chain they refer to. Numbers in names are those of the source.

B1: A44/B26 (bispecific antibody, V domains shown)
VH 1: MQVQLQQSGAELAKPGASVKLSCKASGYTFTSSWMHWIKQRPGQGLEWLGYINPSSGYTKYNRKFRDKATLTADKSSSTAYMQLTSLTYEDSAVYYCARGGNGYYFDYWGQGTTLTVSS
VL 1: DIVMTQSHKFMSTSVGDRVSITCKASQDVGTAVAWYQQKPGQSPKLLIYWASTRHTGVPDRFTGSRYGTDFTLTISNVQSEDLADYLCQQYSNYITFGGGTKLELKR
VH 2: MQVQLQQSGPELVKPGASVKISCKASGYTFTDNNMDWVKQSHGKGLEWIGDINTKSGGSIYNQKFKGKATLTIDKSSSTAYMELRSLTSEDTAVYYCARRRSYGYYFDYWGQGTTLTVSS
VL 2: DIVLTQSQKFMSTSVGDRVSITCKASQNVGTAVAWYQQKPGQSPKALIYSASYRYSGVPDRFTGSGSGTDFTLTISNVQSEDLAEYFCQQYNSYPLTFGAGTKLEIKR
B2: commonly shared L chain antibody of A44 H chain, B26 H chain and hybrid L chain BBA(G) (bispecific antibody, V domains shown)
VH 1: B1 VH 1
VH 2: B1 VH 2
VL: DIVMTQSHKFMSTSVGDRVSITCKASQNVGTAVAWYQQKPGQSPKLLIYSASYRYSGVPDRFTGSRYGTDFTLTISNVQSEDLADYLCQQYSNYITFGGGTKLELKRG
B3: commonly shared L chain antibody of A44 H chain, B26 H chain and hybrid L chain ABA(G) (bispecific antibody, V domains shown)
VH 1: B1 VH 1
VH 2: B1 VH 2
VL: B2 VL with N28D
B4: bispecific antibody of A69H, B26H and hybrid L chain BBa (bispecific antibody, V domains shown)
VH 1: MEVQLQQSGAELVKPGASVKLSCTASGFNIKDYYMHWIKQRPGQGLEWLGYINPSSGYTKYNRKFRDKATLTADKSSSTAYMQLTSLTYEDSAVYYCARGGNGYYLDYWGQGTTLTVSS
VH 2: B1 VH 2
VL: B1 VL 1 with V15I, D28N, W50S, T53Y, H55Y, T56S, N93S, I95L
B5: chimeric bispecific antibody (A69/B26/BBA) (bispecific antibody, V domains shown)
VH 1: B4 VH 1
VH 2: B1 VH 2
VL: B1 VL 1 with D28N, W50S, T53Y, H55Y, T56S

Each binder was assayed against coagulation factor IX / activated coagulation factor IX (human) (UniProt P00740) (assay: cell-based or functional assay).
Sequence of coagulation factor IX / activated coagulation factor IX (human) (P00740 47-461): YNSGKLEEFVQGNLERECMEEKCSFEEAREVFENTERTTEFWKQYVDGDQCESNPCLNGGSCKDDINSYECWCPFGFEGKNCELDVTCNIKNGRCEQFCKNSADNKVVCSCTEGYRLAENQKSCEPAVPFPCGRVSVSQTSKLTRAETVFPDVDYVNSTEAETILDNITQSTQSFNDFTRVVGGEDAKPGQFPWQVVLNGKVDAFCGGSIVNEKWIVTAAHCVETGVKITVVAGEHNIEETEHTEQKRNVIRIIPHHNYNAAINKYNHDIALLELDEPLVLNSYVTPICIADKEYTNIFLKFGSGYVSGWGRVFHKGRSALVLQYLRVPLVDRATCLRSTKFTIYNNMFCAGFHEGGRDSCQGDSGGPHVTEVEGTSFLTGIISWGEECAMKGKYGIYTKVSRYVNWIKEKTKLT

reduction of coagulation time against no antibody | Binder
> 50 s | B1

What follows are binders tested against coagulation factor IX / activated coagulation factor IX (human), P00740 (assay: cell-based or functional assay).
Sequence of coagulation factor IX / activated coagulation factor IX (human), P00740 (P00740 47-461): as above

reduction of coagulation time against no antibody | Binder
> 70 s | B2
> 60 s | B3
> 80 s | B4
> 80 s | B5

These binders were tested against human Factor X (Enzyme Research Laboratories, Inc.) (human, UniProt P00742 41-488) (assay: cell-based or functional assay).
Sequence of human Factor X (Enzyme Research Laboratories, Inc.) (P00742 other isoform, or with tags, fused parts or gaps limits assumed): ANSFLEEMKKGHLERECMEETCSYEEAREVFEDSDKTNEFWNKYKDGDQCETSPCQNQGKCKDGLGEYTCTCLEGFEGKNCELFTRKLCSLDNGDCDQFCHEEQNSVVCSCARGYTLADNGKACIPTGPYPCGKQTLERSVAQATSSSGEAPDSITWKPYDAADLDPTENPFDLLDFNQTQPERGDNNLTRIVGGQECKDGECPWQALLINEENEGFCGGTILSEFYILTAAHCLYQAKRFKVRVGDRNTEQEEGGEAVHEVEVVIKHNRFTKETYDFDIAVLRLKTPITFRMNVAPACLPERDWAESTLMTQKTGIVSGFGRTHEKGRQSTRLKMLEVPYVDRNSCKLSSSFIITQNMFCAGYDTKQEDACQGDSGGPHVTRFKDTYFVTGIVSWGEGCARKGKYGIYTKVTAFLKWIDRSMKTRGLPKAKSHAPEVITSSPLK

reduction of coagulation time against no antibody | Binder
≥ 60 s | B3
≥ 80 s | B4
≥ 50 s | B1
≥ 80 s | B5
